Laboratory results taken from article PMC3909815 (Molecular imaging and biology : MIB : the official …, 2012).

Legend:
[1] = test system: PC-3 tumour; experiment: Biodistribution/pHe modulation study; assay type: in vivo, mouse; settings: PC-3, 24 h p.i., bicarbonate per os 5 days; P=0.053; 95% CI 0%, 51%
[2] = test system: LNCaP tumour; experiment: Biodistribution/pHe modulation study; assay type: in vivo, mouse; settings: 24 h p.i., bicarbonate per os 5 days, P=0.020, 95% CI 10%, 42%
[3] = Biodistribution of 99mTc-AH114567 in tumoured mice
[4] = 60 min p.i., i.v., mean±SD of 2 independent studies
[5] = Radiochemical purity of the preparation over time; assay type: physicochemical; settings: measured ≈24 h p.i., preparation used for SPECT imaging
[6] = test system: mice; experiment: Toxicity of pHe marker in mice; assay type: in vivo, mouse; settings: 7 mmol/kg i.p.

Compound	tumour uptake ratio (uptake difference with bicarbonate relative to standard) [1] [%]	tumour uptake ratio (uptake difference with bicarbonate relative to standard) [2] [%]	lung/blood uptake ratio at 4 h p.i. ([3]; 4 h p.i.)	lung/blood uptake ratio at 24 h p.i. ([3]; 24 h p.i.)	kidney uptake at 24 h p.i. ([3]; 24 h p.i., C57BL/6 mice) [% ID]	blood uptake at 24 h p.i. ([3]; 24 h p.i., all three models) [% ID/g]	lung/blood uptake ratio, initial ([3]; initially)	uptake in liver ([3]; over the first 24 h p.i., liver+gall bladder, LLC tumoured C57BL/6 mice) [% ID]	skin uptake ([3]; range over time points) [% ID]	uptake in bone ([3]; typically) [% ID]	integrated radio-HPLC signal of the parent compound in rat plasma [4] [%]	radiochemical purity (RCP) of the preparation [5] [%]	toxicity for mice [6]
ACEQNPIY{WARYADWLFTTPLLLLDLALLV}DADEGTG [99mTc-AH114567]	29	29	≈ 2	ca. 1	~3	1 to 2	≈ 3	25 to 15	3 to 8	2 to 3	86±6	≥ 85	
CCOP(=O)(OCC)C1(C)CCCN1 (stereo not shown)													toxic
